Reference: patent US20220280611A1, “SOLID COMPOSITION COMPRISING A PYY COMPOUND AND A SALT OF N-(8-(2- HYDROXYBENZOYL)AMINO)CAPRYLIC ACID” (Novo Nordisk A/S, priority 2019, published 2022)
Starred links: 1 amine or outer side, 2 acyl side, 3 side chain; linkers in the order of their positions; H or OH if unused. Non-standard residues stand in square brackets, D forms with d. Groups on a side chain read outwards from the residue. No end group written: not given here. *: point of attachment. Decanoyl(10-(4-HOOC-PhO)) = O=C(O)c1ccc(OCCCCCCCCCC(=O)*)cc1; γGlu = O=C(O)[C@H](CCC(=O)[*:2])N[*:1]; AEEA = NCCOCCOCC(=O)O; Aib = CC(C)(N)C(=O)O

What was measured:
[1] = in words; PCT/EP2019/052487; cited from earlier work
[2] = Assay IV: Pharmacokinetic studies in Beagle dogs (oral exposure); type: in vivo; settings: peroral
Method: Pharmacokinetic (PK) studies in Beagle dogs are conducted to determine the exposure of the PYY compound after peroral administration of different dosage forms.
For the pharmacokinetic studies male Beagle dogs are used, 1 to 5 years of age and weighing approximately 10-12 kg at the start of the studies. The dogs are group housed in pens (12 hours light: 12 hours dark), and fed individually and restrictedly once daily with Royal Canin Medium Adult dog (Royal Canin Products, China Branch, or Brogaarden A/S, Denmark). Exercise and group social are permitted daily, whenever possible. The dogs are used for repeated pharmacokinetic studies with a suitable wash-out period between successive dosings. An appropriate acclimatisation period is given prior to initiation of the first pharmacokinetic study. All handling, dosing and blood sampling of the animals are performed by trained and skilled staff. Before the studies the dogs are fasted overnight and from 0 to 4 h after dosing. Besides, the dogs are restricted to water 1 hour before dosing until 4 hours after dosing, but otherwise have ad libitum access to water during the whole period.
The tablets comprising the PYY compound are administered in the following manner: 10 min prior to tablet administration the dogs are dosed subcutaneously with approximately 3 nmol/kg of SEQ ID NO: 34). The PYY tablets are placed in the back of the mouth of the dog to prevent chewing. The mouth is then closed and tap water is given by a syringe or gavage to facilitate swallowing of the tablet.
Blood is sampled at predefined time points for up till 10 hr post dosing to adequately cover the full plasma concentration-time absorption profile of the PYY compound.
For each blood sampling time point approximately 0.8 mL of whole blood is collected in a 1.5 mL EDTA coated tube, and the tube is gently turned to allowing mixing of the sample with the EDTA. Blood samples (for example 0.8 mL) are collected in EDTA buffer (8 mM) and then centrifuged at 4° C. and 2000 G for 10 minutes. Plasma is pipetted into Micronic tubes on dry ice and kept at −20° C. until analysis. […]
PYY compound was assayed in dog plasma by plasma protein precipitation and turboflow liquid chromatography tandem mass spectrometry (TF-LC-MS/MS). […] The mixture was analysed by TF-LC-MS/MS using a Cyclone turboflow column (0.5×50 mm, ThermoFisher Scientific) and an Aeris Peptide 3.6 um XB-C18 analytical column (50×2.1 mm, Phenomenex) or a Poroshell SB-C18 2.7 um analytical column (50×2.1 mm, Agilent). […] The deviation between nominal and calculated concentration in the calibrators and quality control samples was below 20%. […]

[3] = Test 4 tablet, SNAC amount 100 mg
[4] = Test 3 tablet, SNAC amount 300 mg

## N-epsilon26-[2-(2-{2-[2-(2-{2-[(S)-4-carboxy-4-(17-carboxyheptadecanoylamino) butyrylamino]ethoxy}ethoxy)acetylamino]ethoxy}ethoxy)acetyl][Aib8,Arg34]GLP-1(7-37) [Semaglutide]
[1]
  Oral availability when formulated in a SNAC formulation: orally available

## N-epsilon27-[2-[2-[2-[[2-[2-[2-[[(4S)-4-carboxy-4-[10-(4-carboxyphenoxy)decanoylamino]butanoyl]amino]ethoxy]ethoxy]acetyl]amino]ethoxy]ethoxy]-acetyl], N-epsilon36-[2-[2-[2-[[2-[2-[2-[[(4S)-4-carboxy-4-[10-(4-carboxyphenoxy)decanoylamino]-butanoyl]amino]ethoxy]ethoxy]acetyl]amino]ethoxy]ethoxy]acetyl]-[Aib8,Glu22,Arg26,Lys27, Glu30,Arg34,Lys36]-GLP-1-(7-37)-peptidyl-Glu-Gly (H[Aib]EGTFTSDVSSYLEEQAARK([AEEA-AEEA-γGlu-Decanoyl(10-(4-HOOC-PhO))])FIEWLVRGK([AEEA-AEEA-γGlu-Decanoyl(10-(4-HOOC-PhO))])GEG) [GLP-1 agonist A]
[1]
  Oral availability when formulated in a SNAC formulation: orally available

## N{alpha-4}-(3-Methylbutanoyl)-N{Epsilon-7}-6-[[(4S)-4-carboxy-4-(17-carboxy-heptadecanoylamino)butanoyl]amino]hexanoyl-[Arg4,Lys7,Gln18,Ile22,Tyr28, Trp30,Leu31]hPYY(4-36) [Compound 32]
[2]; [3]
  Dose corrected AUC 0-30 min: 5.05 arbitrary unit
  Dose corrected exposure t = 30 min: 0.268 kg/L

## N{alpha-4}-(3-Methylbutanoyl)-N{Epsilon-7}-6-[[(4S)-4-carboxy-4-(17-carboxy-heptadecanoylamino)butanoyl]amino]hexanoyl-[Arg4,Lys7,Pro9,Gln18,Tyr28,Trp30,Leu31]hPYY(4-36) [Compound 4]
[2]; [4]
  Dose corrected AUC 0-30 min: 2.24 arbitrary unit
  Dose corrected exposure t = 30 min: 0.138 kg/L
